# Data published in PMC8956665, “Structural and molecular rationale for the diversification of resistance mediated by the Antibiotic_NAT family” (Communications Biology, 2022).
# Target: meta-AAC0038^H168A (not stated (soil metagenome))
# Experiment: crystal structure
substance,measurement,value
meta-AAC0038^H168A (enzyme),stoichiometry N,2
